Laboratory results from article PMC3462199, “Recombinant Adiponectin Does Not Lower Plasma Glucose in Animal Models of Type 2 Diabetes” (PLoS ONE, 2012).
Substitutions are numbered along the chain they refer to. In names and notes the source's numbering stands. Several values for one entry are separate records, joined by “and”; a condition that tells them apart may be missing. Equal values may be shown once. Blank lines part the entries; values can stand above or below the molecule they belong to.

Experiments:
[1] = molecular target: Murine globular adiponectin (mgAd) (murine); assay: not stated; oligomeric form and share of trimer/hexamer/HMW in the purified batch as listed in Table 1; the table does not say whether from analytical SEC (Figure 1A) or AF4-MALS
[2] = as above
Q60994 = assay: as above
[3] = molecular target: the molecule itself; assay: as above
[4] = molecular target: T1, C39S version of full length murine adiponectin (C39S mAd) (murine), Q60994; assay: as above; conditions: remark: other sources report otherwise
T1 chain: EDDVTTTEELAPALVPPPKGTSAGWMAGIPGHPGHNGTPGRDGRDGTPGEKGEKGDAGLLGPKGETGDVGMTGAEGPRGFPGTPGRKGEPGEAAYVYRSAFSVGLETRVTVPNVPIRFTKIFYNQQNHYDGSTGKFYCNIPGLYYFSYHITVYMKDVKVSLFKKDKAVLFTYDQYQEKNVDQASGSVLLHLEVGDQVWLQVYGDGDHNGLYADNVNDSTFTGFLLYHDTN

Q15848 = assay: as above
[5] = molecular target: the molecule itself; assay: AF4-MALS; purified batch; 20 mM Tris-HCl pH 7.4, 100 mM NaCl, 1 mM CaCl2; self-association, size of the oligomer

% hexamer [1]: -0%
% trimer [1]: 100%
Molecule: Murine globular adiponectin (mgAd) (domain or fragment)

Molecule: Murine globular adiponectin (mgAd)
% HMW [2]: 0%

B1: Mouse globular adiponectin with an amino terminal FlagTag (FLAG-mgAd) (domain or fragment, murine, UniProt Q60994 109-247, looked up)
chain: EAAYMYRSAFSVGLETRVTVPNVPIRFTKIFYNQQNHYDGSTGKFYCNIPGLYYFSYHITVYMKDVKVSLFKKDKAVLFTYDQYQEKNVDQASGSVLLHLEVGDQVWLQVYGDGDHNGLYADNVQDSTFTGFLLYHDTN
notes: N233Q to prevent N-glycosylation; the methods mention only N233Q; Total mass printed: 17054 Da; also called FLAG tagged mouse globular adiponectin; source: S. cerevisiae ME1719, supernatant, purified (Q Sepharose FF, Superdex 200)
% HMW (Q60994): 0%
% hexamer [3]: 15%
% trimer [3]: 85%

% hexamer [4]: -0%
% trimer [4]: 100%
stoichiometry N [4]: 3
B2: C39S version of full length murine adiponectin (C39S mAd), Q60994 18-247 (natural protein)
chain: T1 chain
modifications: here or on the partner: detected proline hydroxylations at 47, 50, 56, 65, 79; detected lysine hydroxylations at 68, 71, 80, 104; detected proline hydroxylations at 47, 50, 56, 65, 79; detected lysine hydroxylations at 68, 71, 80, 104

B3: C39S version of full length murine adiponectin (C39S mAd) (protein)
chain: T1 chain
% HMW (Q60994): 0%

B4: Full length murine adiponectin (mAd) (protein)
chain: T1 chain with S22C
% HMW (Q60994): 1%

B5: Full length murine adiponectin (mAd) (natural protein, UniProt Q60994 18-247, looked up)
chain: T1 chain with S22C
modifications: detected proline hydroxylations at 65, 79; detected lysine hydroxylations at 36, 68, 71, 80, 104
notes: murine adiponectin; coding region amplified from a mouse spleen cDNA library; the original signal peptide was replaced by the human CD33 signal peptide and the protein was secreted; The forward primer begins with catcatcat (three His codons) followed by gcc gaa gat gac gtt (A E D D V); Batch is a mixture of trimer and hexamer
% hexamer [3]: 53%
% trimer [3]: 46%
stoichiometry N [3]: 3 and 6

B6: Full length human adiponectin (hAd), high molecular weight form (protein)
chain: ETTTQGPGVLLPLPKGACTGWMAGIPGHPGHNGAPGRDGRDGTPGEKGEKGDPGLIGPKGDIGETGVPGAEGPRGFPGIQGRKGEPGEGAYVYRSAFSVGLETYVTIPNMPIRFTKIFYNQQNHYDGSTGKFHCNIPGLYYFAYHITVYMKDVKVSLFKKDKAMLFTYDQYQENNVDQASGSVLLHLEVGDQVWLQVYGEGERNGLYADNDNDSTFTGFLLYHDTN
% HMW (Q15848): 98%

B7: Full length human adiponectin (hAd), high molecular weight form (natural protein, UniProt Q15848 19-244, looked up)
chain: B6 chain
modifications: detected proline hydroxylations at 71, 76, 95; detected lysine hydroxylations at 33, 65, 68, 77, 101 (glycosylated hydroxylysyl)
notes: human adiponectin; coding region amplified from Human Adipocyte Marathon Ready cDNA; the original signal peptide was replaced by the human CD33 signal peptide and the protein was secreted; also called HMW hAd; HMW adiponectin; source: HMW form isolated; copies: 18
% hexamer [3]: 2%
% trimer [3]: 0%
stoichiometry N [5]: 18
